From patent US20210230272A1
Residue numbers refer to the chain shown, from its start. Read-outs that look alike come from different tables or passages of the source. Values belong to the binder of their own block, whether it stands above or below them.

Columns and labels:
[1] = target: human CLDN18.2 (human), P56856; assay: cell-based or functional assay
human CLDN18.2 (human) [2] = target: human CLDN18.2 (human) (UniProt P56856); assay: cell ELISA, hCLDN18.2+ cells
mice CLDN18.2 (mice) = mice CLDN18.2 (mice) (UniProt P56857); assay: cell ELISA, mCLDN18.2+ cells
human CLDN18.2 (human) [3] = target: human CLDN18.2 (human) (UniProt P56856); assay: cell-based or functional assay
human CLDN18.2 (human) [4] = target: human CLDN18.2 (human) (UniProt P56856); assay: cell ELISA, hCLDN18.2+ cells; remark: listed apart in the source
human CLDN18.2 (human) [5] = target: human CLDN18.2 (human) (UniProt P56856); assay: flow cytometry, CF633, 1 µg/ml
human CLDN18.2 (human) [6] = target: human CLDN18.2 (human) (UniProt P56856); assay: flow cytometry, CF488, 10 µg/ml
human CLDN18.2 (human) [7] = target: human CLDN18.2 (human) (UniProt P56856); assay: flow cytometry, CF633, 10 µg/ml
human CLDN18.2 (human) [8] = target: human CLDN18.2 (human) (UniProt P56856); assay: KinExA, antibody titrated with hCLDN18.2+ cells
human CLDN18.2 (human) [9] = target: human CLDN18.2 (human) (UniProt P56856); assay: flow cytometry, CF488 labeled antibody 1 µg/ml, hCLDN18.2+ cells
human CLDN18.2 (human) [10] = target: human CLDN18.2 (human) (UniProt P56856); assay: flow cytometry, CF633 labeled antibody 1 µg/ml, hCLDN18.2+ cells
human CLDN18.2 (human) [11] = target: human CLDN18.2 (human) (UniProt P56856); assay: flow cytometry, CF488 labeled antibody 10 µg/ml, hCLDN18.2+ cells
human CLDN18.2 (human) [12] = target: human CLDN18.2 (human) (UniProt P56856); assay: flow cytometry, CF633 labeled antibody 10 µg/ml, hCLDN18.2+ cells

CDC activity, EC50 [1]: 2.12 µg/mL
B2: Ab51 (antibody, IgG1, V domains shown)
VL: DIVMTQSPDSLAVSLGERATINCKSSQSLLNTGNNKNYLAWYQQKPGQPPKLLIYWASTRESGVPDRFSGSGSGTDFTLTISSLQAEDVAVYYCQNDYFYPFTFGQGTKLEIK
VH: QVQLVQSGAEVKKPGSSVKVSCKASGYAFSNYLIEWVRQAPGQGLEWMGLINPGSGGTNYNEKFKGRVTITADESTSTAYMELSSLRSEDTAVYYCARVYYGNTFAYWGQGTLVTVSS

EC50 (mice CLDN18.2 (mice)): 0.474 nM | Emax (mice CLDN18.2 (mice)): 1.91
B4: Ab51 (antibody, IgG1, V domains shown)
VH: B2 VH
VL: B2 VL

EC50 (human CLDN18.2 (human) [2]): 0.151 nM | Emax (human CLDN18.2 (human) [2]): 1.42
B5: Ab34 (antibody, V domains shown)
VH: B2 VH with R67K, E74K
VL: B2 VL with N22S, T32S

EC50 (human CLDN18.2 (human) [2]): 0.197 nM | Emax (human CLDN18.2 (human) [2]): 1.41
B9: Ab32 (antibody, V domains shown)
VH: B2 VH with R67K, E74K
VL: B2 VL with T32S

ADCC activity, EC50 (human CLDN18.2 (human) [3]): 1.39 µg/mL | CDC activity, EC50 (human CLDN18.2 (human) [3]): 2.31 µg/mL | inducing the apoptosis of tumor cells at 10 µg/ml (LDH release) (human CLDN18.2 (human) [3]): 15.3% | inducing the apoptosis of tumor cells at 30 µg/ml (LDH release) (human CLDN18.2 (human) [3]): 19.6% | inhibition rate % of proliferation, 1 µg/ml (CCK-8) (human CLDN18.2 (human) [3]): 2.34% | inhibition rate % of proliferation, 10 µg/ml (CCK-8) (human CLDN18.2 (human) [3]): 2.94% | inhibition rate % of proliferation, 30 µg/ml (CCK-8) (human CLDN18.2 (human) [3]): 3.9% | EC50 (human CLDN18.2 (human) [4]): 0.345 nM | Emax (human CLDN18.2 (human) [4]): 0.98 | EC50 (human CLDN18.2 (human) [2]): 0.249 nM | Emax (human CLDN18.2 (human) [2]): 1.41 | EC50 (mice CLDN18.2 (mice)): 1.04 nM | Emax (mice CLDN18.2 (mice)): 1 | binding value, ratio to the background (human CLDN18.2 (human) [5]): 2.7 | binding value, times higher than the background (human CLDN18.2 (human) [6]): 4 times | binding value, times of the background (human CLDN18.2 (human) [7]): 8.5 times | Kd (human CLDN18.2 (human) [8]): 0.144 nM | Binding value (FACS fluorescence intensity) (human CLDN18.2 (human) [9]): 1940 | Binding value (FACS fluorescence intensity) (human CLDN18.2 (human) [10]): 62.5 | Binding value (FACS fluorescence intensity) (human CLDN18.2 (human) [11]): 17900 | Binding value (FACS fluorescence intensity) (human CLDN18.2 (human) [12]): 198
B11: Ref (control anti-human CLDN18.2 antibody) (antibody, INN chains, looked up, V domains shown)
VH: QVQLQQPGAELVRPGASVKLSCKASGYTFTSYWINWVKQRPGQGLEWIGNIYPSDSYTNYNQKFKDKATLTVDKSSSTAYMQLSSPTSEDSAVYYCTRSWRGNSFDYWGQGTTLTVSS
VL: DIVMTQSPSSLTVTAGEKVTMSCKSSQSLLNSGNQKNYLTWYQQKPGQPPKLLIYWASTRESGVPDRFTGSGSGTDFTLTISSVQAEDLAVYYCQNDYSYPFTFGSGTKLEIKR

Continued, binder first:

B1: CAR1a (CAR with Ab10 scFv) (protein)
chain: DIVMTQSPDSLAVSLGERATISCKSSQSLLNSGNQKNYLTWYQQKPGQPPKLLIYWASTRESGVPDRFSGSGSGTDFTLTISSLQAEDVAVYYCQNDYFYPFTFGQGTKLEIKGGGGSGGGGSGGGGSQVQLVQSGAEVKKPGSSVKVSCKASGYAFSNYLIEWVKQAPGQGLEWIGLINPGSGGTNYNEKFKGKATITADKSTSTAYMELSSLRSEDTAVYYCARVYYGNSFAYWGQGTLVTVSSTTTPAPRPPTPAPTIASQPLSLRPEACRPAAGGAVHTRGLDFACDIYIWAPLAGTCGVLLLSLVITLYCKRGRKKLLYIFKQPFMRPVQTTQEEDGCSCRFPEEEEGGCELRVKFSRSADAPAYKQGQNQLYNELNLGRREEYDVLDKRRGRDPEMGGKPRRKNPQEGLYNELQKDKMAEAYSEIGMKGERRRGKGHDGLYQGLSTATKDTYDALHMQALPPR
specific killing rate of target cells, %, CART1a, 1:1 [1]: 19.1% | specific killing rate of target cells, %, CART1a, 3:1 [1]: 18.3% | specific killing rate of target cells, %, CART1a, 10:1 [1]: 32.2% | specific killing rate of target cells, %, CART1a, 20:1 [1]: 34.8% | specific killing rate of target cells, %, CART3a, 1:1 [1]: 3.9% | specific killing rate of target cells, %, CART3a, 3:1 [1]: 3.1% | specific killing rate of target cells, %, CART3a, 10:1 [1]: 21.8% | specific killing rate of target cells, %, CART3a, 20:1 [1]: 24.3% | specific killing rate of target cells, %, CART3ab10, 1:1 [1]: 0% | specific killing rate of target cells, %, CART3ab10, 3:1 [1]: 0% | specific killing rate of target cells, %, CART3ab10, 10:1 [1]: 12.2% | specific killing rate of target cells, %, CART3ab10, 20:1 [1]: 21.2% | specific killing rate of target cells, %, CART4a, 1:1 [1]: 0% | specific killing rate of target cells, %, CART4a, 3:1 [1]: 1.2% | specific killing rate of target cells, %, CART4a, 10:1 [1]: 8.8% | specific killing rate of target cells, %, CART4a, 20:1 [1]: 19.8%

B3: Ab22 (antibody, V domains shown)
VH: B2 VH with R67K, E74K
VL: B2 VL with N31T, T32S
EC50 (human CLDN18.2 (human) [2]): 1.37 nM | Emax (human CLDN18.2 (human) [2]): 0.827

B6: Ab23 (antibody, V domains shown)
VH: B2 VH with R67K, E74K, N103T, T104S
VL: B2 VL
EC50 (human CLDN18.2 (human) [2]): > 40 nM | Emax (human CLDN18.2 (human) [2]): 0.147

B7: Ab21 (antibody, V domains shown)
VH: B2 VH with R67K, E74K, N103T, T104S
VL: B2 VL with N31T, T32S
EC50 (human CLDN18.2 (human) [2]): > 16 nM | Emax (human CLDN18.2 (human) [2]): 0.145

B8: Ab30 (antibody, V domains shown)
VH: B2 VH with R67K, E74K
VL: B2 VL with N22S, T32S, N35Q, A40T
EC50 (human CLDN18.2 (human) [2]): 11.4 nM | Emax (human CLDN18.2 (human) [2]): 0.67

B10: Ab28 (antibody, V domains shown)
VH: B2 VH with R67K, E74K, T104S
VL: B2 VL
EC50 (human CLDN18.2 (human) [2]): 0.154 nM | Emax (human CLDN18.2 (human) [2]): 1.56
